# Data taken from patent publication US20160355587A1.
# Molecular target: human CD166 on human cells or tissue (human) (UniProt Q13740)
# Experiment: inhibition of adhesion of CD166-expressing HuT-78 cells to immobilized recombinant CD6
# Sequence of human CD166 on human cells or tissue (human) (Q13740 28-583): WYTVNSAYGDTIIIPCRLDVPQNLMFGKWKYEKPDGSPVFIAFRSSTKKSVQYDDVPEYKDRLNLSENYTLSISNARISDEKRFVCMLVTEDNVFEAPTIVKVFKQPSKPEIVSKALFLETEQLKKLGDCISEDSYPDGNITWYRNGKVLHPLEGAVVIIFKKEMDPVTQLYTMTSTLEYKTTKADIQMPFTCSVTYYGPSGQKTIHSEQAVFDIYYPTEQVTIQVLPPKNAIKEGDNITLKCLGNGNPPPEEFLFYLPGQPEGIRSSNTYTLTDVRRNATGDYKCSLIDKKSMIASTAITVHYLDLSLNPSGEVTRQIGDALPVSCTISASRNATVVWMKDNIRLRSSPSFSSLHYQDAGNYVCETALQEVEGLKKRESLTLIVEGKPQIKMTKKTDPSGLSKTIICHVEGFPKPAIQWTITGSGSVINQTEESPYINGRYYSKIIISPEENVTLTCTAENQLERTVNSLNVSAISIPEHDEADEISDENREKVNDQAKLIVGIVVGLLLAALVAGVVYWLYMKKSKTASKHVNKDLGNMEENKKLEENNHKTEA
substance,measurement,value
MAB656 (antibody),EC50,3.7 nM
